# Assay results: patent US20170044236A1 (GENERAL HOSPITAL, published 2017)
# T1: αVβ3(N339/S) on HEK293T cells (human, UniProt P06756 31-1048; P05106 27-788)
# T1 construct: also called αVβ3^N/S; active αVβ3(N339/S)
# T1 chain 1: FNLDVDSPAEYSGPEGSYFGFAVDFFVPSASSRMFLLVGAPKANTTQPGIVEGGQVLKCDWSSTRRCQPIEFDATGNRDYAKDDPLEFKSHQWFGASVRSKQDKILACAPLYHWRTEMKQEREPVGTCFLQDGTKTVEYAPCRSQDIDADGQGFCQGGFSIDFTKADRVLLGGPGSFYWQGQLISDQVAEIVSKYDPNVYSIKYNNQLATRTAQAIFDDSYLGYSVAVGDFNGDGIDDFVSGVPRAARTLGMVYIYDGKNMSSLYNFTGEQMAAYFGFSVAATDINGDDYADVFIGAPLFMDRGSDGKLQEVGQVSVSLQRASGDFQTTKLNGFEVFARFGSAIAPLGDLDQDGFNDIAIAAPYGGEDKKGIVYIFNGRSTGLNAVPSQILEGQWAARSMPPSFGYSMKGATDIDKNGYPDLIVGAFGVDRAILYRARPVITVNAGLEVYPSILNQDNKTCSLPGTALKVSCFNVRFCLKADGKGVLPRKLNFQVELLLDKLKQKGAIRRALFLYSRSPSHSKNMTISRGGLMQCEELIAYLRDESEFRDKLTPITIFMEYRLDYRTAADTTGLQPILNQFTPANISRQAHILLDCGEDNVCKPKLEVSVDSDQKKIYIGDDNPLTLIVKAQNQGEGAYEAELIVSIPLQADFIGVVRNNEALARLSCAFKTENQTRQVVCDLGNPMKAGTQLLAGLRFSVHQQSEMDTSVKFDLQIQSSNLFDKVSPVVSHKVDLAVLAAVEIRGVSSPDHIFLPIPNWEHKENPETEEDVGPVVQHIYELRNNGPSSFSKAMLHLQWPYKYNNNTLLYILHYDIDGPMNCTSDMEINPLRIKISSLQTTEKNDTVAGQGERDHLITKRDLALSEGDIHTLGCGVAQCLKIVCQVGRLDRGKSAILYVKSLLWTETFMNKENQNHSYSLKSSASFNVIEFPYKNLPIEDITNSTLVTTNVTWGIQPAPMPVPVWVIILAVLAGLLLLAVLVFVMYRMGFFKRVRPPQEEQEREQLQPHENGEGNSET
# T1 chain 2: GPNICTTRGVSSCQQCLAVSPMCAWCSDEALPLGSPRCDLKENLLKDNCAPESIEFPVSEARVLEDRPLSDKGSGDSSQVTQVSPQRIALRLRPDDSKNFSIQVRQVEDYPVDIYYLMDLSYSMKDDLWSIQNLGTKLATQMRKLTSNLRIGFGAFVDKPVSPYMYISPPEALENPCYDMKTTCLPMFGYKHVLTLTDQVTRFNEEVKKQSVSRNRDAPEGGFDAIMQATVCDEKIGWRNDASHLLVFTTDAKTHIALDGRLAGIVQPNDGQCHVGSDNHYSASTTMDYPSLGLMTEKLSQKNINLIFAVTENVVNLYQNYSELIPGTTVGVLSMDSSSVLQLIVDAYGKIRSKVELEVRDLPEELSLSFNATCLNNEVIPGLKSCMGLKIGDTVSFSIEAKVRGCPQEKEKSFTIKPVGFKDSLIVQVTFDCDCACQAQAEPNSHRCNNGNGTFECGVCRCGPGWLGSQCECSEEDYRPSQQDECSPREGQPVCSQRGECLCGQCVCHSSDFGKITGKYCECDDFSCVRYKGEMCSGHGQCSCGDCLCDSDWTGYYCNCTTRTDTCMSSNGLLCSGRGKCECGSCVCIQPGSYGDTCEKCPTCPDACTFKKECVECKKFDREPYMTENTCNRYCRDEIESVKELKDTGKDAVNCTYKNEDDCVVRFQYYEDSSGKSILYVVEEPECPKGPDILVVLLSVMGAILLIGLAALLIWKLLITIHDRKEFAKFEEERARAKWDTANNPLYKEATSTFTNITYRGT
# T2: wild-type integrin αVβ3 on cells (K562-αVβ3, M21, HEK293T) (human, UniProt P06756 31-1048; P05106 27-788)
# T2 construct: also called WT αVβ3; cellular αVβ3
# T2 chain 1: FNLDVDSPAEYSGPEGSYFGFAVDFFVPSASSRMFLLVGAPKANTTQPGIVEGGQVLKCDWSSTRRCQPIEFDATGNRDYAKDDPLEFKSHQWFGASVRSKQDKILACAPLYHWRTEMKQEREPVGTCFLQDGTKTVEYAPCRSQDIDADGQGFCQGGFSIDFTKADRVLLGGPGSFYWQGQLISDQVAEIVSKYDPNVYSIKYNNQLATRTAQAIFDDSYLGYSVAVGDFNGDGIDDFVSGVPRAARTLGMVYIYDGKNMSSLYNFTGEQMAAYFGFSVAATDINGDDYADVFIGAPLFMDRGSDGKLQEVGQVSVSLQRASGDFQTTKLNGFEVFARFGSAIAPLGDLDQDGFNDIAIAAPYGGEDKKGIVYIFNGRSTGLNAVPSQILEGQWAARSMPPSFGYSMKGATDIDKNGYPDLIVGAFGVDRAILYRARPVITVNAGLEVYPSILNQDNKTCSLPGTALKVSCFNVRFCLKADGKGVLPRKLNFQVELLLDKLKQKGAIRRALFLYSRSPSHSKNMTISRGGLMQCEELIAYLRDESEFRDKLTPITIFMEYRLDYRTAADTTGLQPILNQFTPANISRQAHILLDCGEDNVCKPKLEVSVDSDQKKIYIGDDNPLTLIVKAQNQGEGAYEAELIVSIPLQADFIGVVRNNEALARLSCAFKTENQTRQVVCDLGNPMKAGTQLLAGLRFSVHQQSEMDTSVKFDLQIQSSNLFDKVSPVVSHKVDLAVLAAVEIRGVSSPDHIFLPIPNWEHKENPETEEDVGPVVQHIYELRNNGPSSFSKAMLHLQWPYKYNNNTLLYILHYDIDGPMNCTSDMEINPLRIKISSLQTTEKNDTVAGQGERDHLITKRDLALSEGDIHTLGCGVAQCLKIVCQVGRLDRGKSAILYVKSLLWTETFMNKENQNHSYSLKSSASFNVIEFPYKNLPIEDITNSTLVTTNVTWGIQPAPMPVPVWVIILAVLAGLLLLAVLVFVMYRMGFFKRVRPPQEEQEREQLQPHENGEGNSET
# T2 chain 2: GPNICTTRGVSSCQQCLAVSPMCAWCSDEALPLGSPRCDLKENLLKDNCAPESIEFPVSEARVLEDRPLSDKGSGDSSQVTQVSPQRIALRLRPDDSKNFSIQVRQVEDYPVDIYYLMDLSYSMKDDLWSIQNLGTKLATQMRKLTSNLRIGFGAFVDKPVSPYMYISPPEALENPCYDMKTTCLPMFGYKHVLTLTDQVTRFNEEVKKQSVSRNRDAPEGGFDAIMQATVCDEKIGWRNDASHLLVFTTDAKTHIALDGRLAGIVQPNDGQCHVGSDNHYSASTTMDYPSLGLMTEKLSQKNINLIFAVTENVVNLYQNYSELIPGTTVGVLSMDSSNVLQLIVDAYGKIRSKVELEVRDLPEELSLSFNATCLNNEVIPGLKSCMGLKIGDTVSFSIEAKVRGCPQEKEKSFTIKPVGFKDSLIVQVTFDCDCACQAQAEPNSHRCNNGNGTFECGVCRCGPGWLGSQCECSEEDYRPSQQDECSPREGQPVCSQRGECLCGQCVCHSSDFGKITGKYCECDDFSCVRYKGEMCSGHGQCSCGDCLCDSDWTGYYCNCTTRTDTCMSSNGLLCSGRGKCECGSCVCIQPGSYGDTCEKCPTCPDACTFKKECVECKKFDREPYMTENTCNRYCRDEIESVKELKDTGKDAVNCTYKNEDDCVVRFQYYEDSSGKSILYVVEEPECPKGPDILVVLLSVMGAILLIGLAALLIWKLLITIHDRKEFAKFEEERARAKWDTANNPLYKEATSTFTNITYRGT
# How the values were obtained:
# [1] = target: T1, αVβ3(N339/S) on HEK293T cells; experiment: flow cytometry, fluorescein-tagged hFN10-G on cells
# [2] = target: T2, wild-type integrin αVβ3 on cells …; experiment: flow cytometry, fluoresceinated fluid-phase FN10 on K562-αVβ3 cells
# [3] = target: T1, αVβ3(N339/S) on HEK293T cells; experiment: flow cytometry, fluoresceinated fluid-phase FN10 on transfected HEK293T cells, Ca2+/Mg2+
binding result [1],fold increase of binding (Mn2+ over Ca2+/Mg2+) [2],fold increase of binding (N339/S over wild-type αVβ3) [3],Binder
no binding,,,"hFN10-G (designed binder, Fluorescein-tagged in the assay; also called mhFN10) SDVPRDLEVVAATPTSLLISWDAPAVTVRYYRITYGETGGNSPVQEFTVPGSKSTATISGLKPGVDYTITVYAVTPGRGDWNEGSKPISINY"
,10 fold,6 fold,"wild-type 10th type-III RGD-domain of human fibronectin (wtFN10) (ligand, Expressed in bacteria with an N-terminal His tag (S1417-T1509) and a thrombin cleavage site; also called wild-type FN10) not shown"
